In this test the target is T1, Tah1 (yeast, full-length) (yeast), P25638.
T1 chain: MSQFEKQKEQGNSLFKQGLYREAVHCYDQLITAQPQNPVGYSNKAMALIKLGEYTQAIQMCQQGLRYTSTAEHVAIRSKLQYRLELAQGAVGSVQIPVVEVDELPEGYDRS
Put plainly: cross-linking; lysine-specific crosslinker DMS, in solution, SDS-PAGE. The following applies: remark: other sources report otherwise.

From PMC4058522, “Structural Basis for Phosphorylation-Dependent Recruitment of Tel2 to Hsp90 by Pih1” (Structure(London, England:1993), 2014) come the findings set out here.

A word on the stoichiometry N: it is a count of units in the complex or per binding partner.

B1: Tah1 (yeast, full-length), P25638 1-111 (natural protein)
chain: T1 chain
For B1, the stoichiometry N is 2.
